From the supplement of paper PMC10724198
± gives the standard deviation of the averaged measurements.

Test system: Saccharomyces cerevisiae
Assay: protein stability index of tFT-peptide fusion (C-terminal peptide) (PSI (0-1 scale)); higher = more stable (slower turnover)
Conditions: genetic background: wild type; temperature: 30 C
Method: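 Multiplexed protein stability (MPS) profiling in S. cerevisiae. Random 12-aa peptides (tFT-X12 library) are fused to the C-terminus of a sfGFP-mCherry tandem fluorescent timer, after mCherry and a GGGS linker. Cells are FACS-sorted into 8 mCherry/sfGFP bins and deep-sequenced. The protein stability index (PSI) is the read-weighted bin average, scaled from 0 (unstable) to 1 (stable). Only peptides with >10 reads are reported; cells were grown at 30 °C in SC-His with glucose.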
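Also: PSI is a weighted mean of sequencing reads over stability bins, variants kept only with over 10 reads, mCherry proximal and sfGFP distal, peptide attached via GGGS linker.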

Row | Sequence | protein stability index
1 | GGSIGTELAAVI | 0.682 ± 0.054
2 | GGSRGGRWGLGE | 0.746 ± 0.087
3 | GGSRRGLGAAGE | 0.671 ± 0.022
4 | GGTPIGAHVLLR | 0.661 ± 0.00077
5 | GGVCRARVAETV | 0.674 ± 0.0074
6 | GGVGGGGREWRR | 0.683 ± 0.033
7 | GGVGGRGREWRR | 0.7 ± 0.028
8 | GGVGGVRLVVSR | 0.684 ± 0.064
9 | GGVGRGVGRGWG | 0.671 ± 0.03
10 | GGVLGNGCGFGR | 0.784 ± 0.065
11 | GGVRAAGTGCGG | 0.642 ± 0.031
12 | GGVSGESAVVSV | 0.649 ± 0.038
13 | GGVSRLVGRLGG | 0.7055 ± 0.0017
14 | GGVVCWACRWEL | 0.671 ± 0.04
15 | GGVVGWCAGKVV | 0.642 ± 0.071
16 | GGVVSVYCEVSR | 0.625 ± 0.016
17 | GGWPWGGFLVDR | 0.735 ± 0.012
18 | GGWRGWAGENTR | 0.699 ± 0.035
19 | GGWRRDGSLCGA | 0.733 ± 0.14
20 | GGWSIVQKRRGG | 0.7215 ± 0.0034
21 | GGWWVLCGGGWG | 0.567 ± 0.025
22 | GGYGRAGRDVGG | 0.655 ± 0.035
23 | GGYLLAGEGTFA | 0.702 ± 0.0094
24 | GHEQIISIKGIK | 0.73 ± 0.049
25 | GHVETQTRMASG | 0.789 ± 0.19

Row | Sequence | protein stability index
26 | GIGSHSSSNVNP | 0.791 ± 0.094
27 | GIKKNKIKKKKI | 0.624 ± 0.054
28 | GIKRKEKEKKNN | 0.615 ± 0.026
29 | GIMNDMPSLTAT | 0.6757 ± 0.0038
30 | GISASLRRMTRR | 0.623 ± 0.017
31 | GISLTVTVRGWL | 0.496 ± 0.019
32 | GIVFGMRKSDFK | 0.764 ± 0.1
33 | GIYAWFSGWRKD | 0.72 ± 0.015
34 | GKAIIIFEQLRR | 0.749 ± 0.12
35 | GKEGKGEAGIGE | 0.686 ± 0.024
36 | GKEQIEKKIEGI | 0.589 ± 0.009
37 | GKGGAEHADQVL | 0.669 ± 0.099
38 | GKGGITGWCCHH | 0.648 ± 0.04
39 | GKHIAEMGNRKN | 0.716 ± 0.074
40 | GKIGYQLGAVIN | 0.709 ± 0.068
41 | GKINPKMEIWIE | 0.7011 ± 0.0049
42 | GKKTTQELGKTK | 0.803 ± 0.13
43 | GKKYDEAQLRKG | 0.709 ± 0.041
44 | GKMLCADRSLEY | 0.701 ± 0.11
45 | GKNIINSKITYK | 0.772 ± 0.043
46 | GKRKEKLEQTAQ | 0.688 ± 0.027
47 | GKSGGTGAGEKR | 0.661 ± 0.046
48 | GKTVRERWATRP | 0.651 ± 0.064
49 | GKYHIFNPNPKA | 0.685 ± 0.012
50 | GLAELLLTKPTV | 0.652 ± 0.021

Row | Sequence | protein stability index
51 | GLAGWCGGGWAL | 0.705 ± 0.026
52 | GLAPPRPYPPPA | 0.728 ± 0.065
53 | GLCRVANGGTER | 0.695 ± 0.018
54 | GLGGRAAQKCGQ | 0.688 ± 0.016
55 | GLGQGVGWPWAV | 0.678 ± 0.024
56 | GLGRRPGVGGVR | 0.71 ± 0.0075
57 | GLGVPWVRWGWV | 0.632 ± 0.019
58 | GLGVVHGYFLVE | 0.59 ± 0.025
59 | GLKNECAIDGVL | 0.623 ± 0.045
60 | GLLCWVGRWGVF | 0.596 ± 0.05
61 | GLLGFVLSKDST | 0.719 ± 0.052
62 | GLLPTPPASLLY | 0.6888 ± 0.00085
63 | GLLRVGGFWSCL | 0.747 ± 0.019
64 | GLLSKVEFEEYQ | 0.655 ± 0.014
65 | GLLVAGGRNGDC | 0.719 ± 0.054
66 | GLLYHIRVRSRG | 0.66 ± 0.006
67 | GLMITSARYVGF | 0.641 ± 0.012
68 | GLNCGVCFGGGV | 0.701 ± 0.025
69 | GLPHPPPHPFSL | 0.763 ± 0.055
70 | GLPSLHGTFRLS | 0.69 ± 0.0077
71 | GLQLTLINLPLE | 0.749 ± 0.029
72 | GLSSVVWSGGLC | 0.6222 ± 0.0047
73 | GLVAVRARGSRA | 0.663 ± 0.094
74 | GLVGPKDRVSGL | 0.701 ± 0.018
75 | GLYSRPVNSNSF | 0.762 ± 0.022

Row | Sequence | protein stability index
76 | GMDGRGWGGSVV | 0.726 ± 0.038
77 | GMECFSGRGSEP | 0.735 ± 0.062
78 | GMIGLAEVGIKC | 0.573 ± 0.0067
79 | GMPTANMYLLLQ | 0.636 ± 0.017
80 | GMYRHEGQSWDL | 0.7316 ± 0.0065
81 | GNEKSSRLRSTT | 0.644 ± 0.12
82 | GNFGFKVELGVR | 0.686 ± 0.031
83 | GNIREEYGSTGI | 0.7226 ± 0.0032
84 | GNKKENEKKEKK | 0.734 ± 0.022
85 | GNPGRTAHILQL | 0.655 ± 0.03
86 | GNTGRLERLKRQ | 0.734 ± 0.072
87 | GNVRRVYMDYQG | 0.735 ± 0.039
88 | GPCQSPSLVLTC | 0.555 ± 0.012
89 | GPGSWKWKSRRV | 0.6634 ± 0.0034
90 | GPGTAMCLWWWG | 0.692 ± 0.0085
91 | GPGTSSVARPVS | 0.735 ± 0.07
92 | GPGYVFVGSGGW | 0.692 ± 0.027
93 | GPLDEPRIWSHR | 0.669 ± 0.0095
94 | GPLEGGDGRWVG | 0.6852 ± 0.0015
95 | GPLNQALLHCSV | 0.653 ± 0.021
96 | GPPAGGTARSPM | 0.694 ± 0.029
97 | GPRGGGGWSCES | 0.7366 ± 0.0032
98 | GPRIVVLKDVII | 0.6403 ± 0.0063
